In US20220402990:

Legend:
[1] = test system: Activatable cytokine construct IFN-α2b-1204DNIdl-hIgG4
[2] = test system: Activatable cytokine construct IFN-α-2b 1490DNI-hIgG4
[3] = test system: IFN-α2b-1204DNIdl-hIgG4 with five amino acid residues added to the linker
[4] = test system: Activatable cytokine construct ProC440 (N IFNα2b 0 1204DNIdL 0AA Fc)

recombinant human urokinase-type plasminogen activator (uPA)
protease cleavage, gel electrophoresis [1]: The results suggest that the proteases were effective at cleaving the cleavable moieties in the activatable cytokine constructs
protease cleavage, gel electrophoresis [2]: The results suggest that the proteases were effective at cleaving the cleavable moieties in the activatable cytokine constructs
protease cleavage, gel electrophoresis [3]: The results suggest that the proteases were effective at cleaving the cleavable moieties in the activatable cytokine constructs
protease cleavage, mass spectrometry [4]: Cleavage with uPa at the expected site in the CM was confirmed by Mass spectrometry analysis
